Reference: the DeepSol protein solubility set

Assay: soluble on expression in E. coli; label from the status in PepcDB or PDB records

Sequence	soluble on expression in E. coli
AHHHHHHGSKAPICEVCLKTEDILCPADEKKLEEGIITELDVKISRMLYKLLGDADVEFKKAVEAGDLIVLIVGEGDVPIVIGKGGKNIKYLTRELGKRVRVIESTDDVKKLAVDLLYPAGVFGVNVVYKPDGGQYYKVLVFSRDKSKLPEKSEVLESILTQITGVETKISFI	soluble
MSLKKYMGIIVDAISRRQFKGEITVENGKIIRVEEKEHDNEQYILPGLVDAHVHIESSMTVPSVFARMAVAKGTVAVVSDPHEIANVMGEEGIEFMLEDSKKSPLKVYFGVPSCVPATPFESSGAVLDINAVDRLLAKDDLHYLSEMMNFPGVILEFPDVMAKLESARKHGKVIDGHAPGLRGADLQKYIGAGISTDHECFEYEEAREKIELGMKILIREGSSARNFETLYPLIDEYPDHVMLCTDDSHPDTLIYEGHIDKLIRRGQEKGLDIYNLIRTAVFNPVEHYGLNVGLLREGDPADFIIVDNLKSFNILSTFIDGECVYENGKVLFPLEKVPAKNVFNRNKISIDDVKLVPPAGAIQEQTTEKGIKKIRVIVANDGELVTGQELIVPKIENGNLVSDPERDILKMVVLSRYSDDPVRIGFIKNIGLEKGAIASSIAHDSHNIIAVGATDEDIVETVNRLIKNKGGIAVGTAENLLDLPLEVAGLMSTLEGEEVASRYHLLNEEARKLGTSLESPFMTLAFMSLLVIPELKLGDKGLFDVTKFEFVDLFADEGHHHHHH	soluble
GPGSMAVAAAAAAQTVAPRPPMQIGRADIAQMVASNPHVPTFSLPMNRQLEREFRTFRPVLIIAPLSTLPHWASEFQRFSRRHTAAAVSPCPGGVDAAERFTVYVLNGPRSERESRMGELLAHVERLTQQPPTPGGASGATPATPVVVIPHDMLTKPLRGALRQIRRVDWQVVAIDEAQRIKCARSFLFKKVCGLHSVSRRVLTGHTVADQHDGALPCSCAFRHRTRSSRVSCLSSWIAHCSPQVGRARWRIASCASSCAAVLIDFRCRSSCGVRGAS	soluble
SNAMEKYILSIDQGTTSSRAILFNQKGEIAGVAQREFKQYFPQSGWVEHDANEIWTSVLAVMTEVINENDVRADQIAGIGITNQRETTVVWDKHTGRPIYHAIVWQSRQTQSICSELKQQGYEQTFRDKTGLLLDPYFAGTKVKWILDNVEGAREKAENGDLLFGTIDTWLVWKLSGKAAHITDYSNASRTLMFNIHDLEWDDELLELLTVPKNMLPEVKASSEVYGKTIDYHFYGQEVPIAGVAGDQQAALFGQACFERGDVKNTYGTGGFMLMNTGDKAVKSESGLLTTIAYGIDGKVNYALEGSIFVSGSAIQWLRDGLRMINSAPQSESYATRVDSTEGVYVVPAFVGLGTPYWDSEARGAIFGLTRGTEKEHFIRATLESLCYQTRDVMEAMSKDSGIDVQSLRVDGGAVKNNFIMQFQADIVNTSVERPEIQETTALGAAFLAGLAVGFWESKDDIAKNWKLEEKFDPKMDEGEREKLYRGWKKAVEATQVFKTE	soluble
MGSDKIHHHHHHMKQIPLAERMRPKTLADYVGQQHLIGSGAVLRQMIEQGQTPSMILWGPPGVGKTTLAEIIAHEVDAPFYTLSAVSSGVKEVREVIADIESNRGNLFDKGGRAILFIDEIHRFSKSQQDSLLAAVERGIVTLIGATTENPSFEVIRPLLSRCQVYVLKPQSDEDLLLLAHRAIDRDELLAAKHPVLEETEALLLYAGGDARKLLNILDLLATSEVEDRLVITNEKIRQRLQENPAAFDKGGELHYDIASAFIKSIRGSDPDAAIYWLARLIDGGEEPSFIARRLIISASEDIGLANPNAMLIAMACAEALDRIGWPEGRIPLAEATIYLATSEKSNSAYLAIDSALEYVRQSGNLPVPLHLRNAPTRLMADLDYGKGYKYSHDFPEHFVSQQYLPDKAANTSFWTPQMHTVHEAKLGERMKRWWKREKSQKDTAE	not soluble
TKDFSWDTTLSFTWSKEKINSLPTGDLIKENLFEGQPIHALYDYKYAGIWGSNVPQETLDAYGVKPGWVKIETLDKDGDGGVHKYGEDDRQILGHTNPDVILGLNNTLTYKNFDLSIFAMARYGQTIKSSLIGWYRASSNYSINQPAGVDYWTENNQGAYYPVPGSGDEQKVMSALTYRDGSFIKVKNITLGYTLPQSVSRKVLMEKCRFYATAYNPFLYVKDKELRGTDPETNGSDAFPLYKQFVFGINVTF	not soluble
MGSDKIHHHHHHMQRARCYLLGERAVVLELEPPMSLESQQRIWGLAERLNHHEEVLEVIPGMNNLTVLLAHPQQVALDAIERLQRWWEESESLVFDPRDIDIPVIYGGEAGPDLAEVAAHSGLTVSQVVEAHAAAQYVVYFLGFQPGFAYLGGLNEKLHMPRRAEPRLRVPEGSVGIGGAQTGIYPLATPGGWQLIGRTSLTLFNPQTMPPTLLRPGDNVRFLPQKEGVC	not soluble
MGSDKIHHHHHHMIPPASTLRSRLKMQHLRLLLSIEERGSLRQAADALSLSQPAVTKMLQDMEALLGVTLFERHLRGLRPTRFGMAVTRYANLVFSDLANLHDELVSLETGRIGKVRIGAVMAPTPVLMAEVIRRLKRDHPGLNMTVHVDTSDMLVPMLERDQLDLVLGRVPEGWDASHLTFEQLGDERLAVVVGCDHPLAKRTDPTFGELATYPWILQPRPSPMRALIDRSFEEAGVTAPQSTIETAAILMTTSLLTGSDLVAVVPMAVATFHASMGLLHILPVPLPRKLDPYGIVTRLGRPPSASMTLFVDVLRAVVEEGGQ	not soluble
EHNKRVNLANAGRVSSAEGIKKLRASGVKFVWVDQSLSAQQCVFKPVEEPIDIEVGDKTLSVSSKVQRAYRSREVQHKRAKKLIAEAKGLAQKLLNQTFEGKVIQVDEIESWADDMIESVFIDSDALQCVSALRQKDSYLLEHSVNVACLLVSFGKHLGLDKDTLKQLAIGGIIHDVGKIKVDDKILHKPARLTPEEFEHMKLHQVFAGEIIVEVKGLSDVSRDVCLMHHEKLDGTGYPRGLSGDEIPIHGRMSCIVDIYDALTADRCYKKGMSSAEAFKILLSLTPFHLDPDL	not soluble
MSLDEVSQKPHERLAAWLAEDMAAVNGLIRERMASKHAPRIPEVTAHLVEAGGKRLRPLLTLAAARLCGYEGPYHIHLAATVEFIHTATLLHDDVVDESHRRRGKPTANLLWDNKSSVLVGDYLFARSFQLMVETGSLRVMDILANASATISEGEVLQLTAAQDLRTTEDIYLQVVRGKTAALFAAATEVGGVVAGVPEAQVEALHAYGDALGIAFQIVDDLLDYGGVDAQIGKNTGDDFRERKLTLPVIKAVAQADAEERAFWQRVIEKGDQREGDLEQAHAIMSRHGAMEAARQDALRWVTVAREALGQLPEHPLREMLHDLADFVVERIAEGHHHHHH	soluble
MVSIELRDIIKRFGEFELKVSLSVKDGELLTLLGPSGCGKTTTLRIIAGLEKPDKGRVYFDGRDITDLPPYERNIGLVFQDYALFPHMTVFKNVAFGLEVRRVPRMEIEKRVREVLDLVGLRGFENRLPEELSGGQQQRVALARALVIEPDVLLLDEPLSNLDAKVREKLRGEIKRIVKELGITTIYVTHDQEEAMVLSDRIAVMNFGRIEQVGEPYDLYYNPKNEFVANFLGISNIVELEAKEGRACLGDLCFEVGREGKGKIFFRPENVAVGEGIEAEVIGYELLPGRVRLRLSIEGREIIAEELLSRIGKKIPKKVRIRVREFKILP	soluble
MKPEKIDCNFKLIYCEDEESKGGRLEFSLEEVLAISRNVYKRVRTNRKHHHHHH	soluble
RYRGSKWAGKKSIPAFIDNDYNEADQVIENLQRNELTPREIADFIGRELAKGKKKGDIAKEIGKSPAFITQHVTLLDLPEKIADAFNTGRVRDVTVVNELVTAFKKRPEEVEAWLDDDTQEITRGTVKLLREFLDEKGRDPNTVDAFNGQTDAERDAEAGDGQDGEDGDQDGKDAKEK	soluble
MELTVKDIQTWLDNYSKVIEEKKDYLSELDTPIGDGDHGNNMARGMAEYKIAFDKKVPTTITETFKVLSMALISKVGGASGPLYGTAFMNMTKATKDLETISSPEQLKEIVQQGLAGIQMRGKAEPGDKTMVDVWAPVAEVIGTEQFNEEKIEQFAEATKDWVAKKGRASYLGERAIGHIDPGAASSALLFEELVKVINQ	not soluble
VNDNQLAPVARPRSPLELLDTVPDSLLRRLKQYSGRLATEAVSAMQERLPFFADLEASQRASVALVVQTAVVNFVEWMHDPHSDVGYTAQAFELVPQDLTRRIALRQTVDMVRVTMEFFEEVVPLLARSEEQLTALTVGILKYSRDLAFTAATAYADAAEARGTWDSRMEASVVDAVVRGDTGPELLSRAAALNWDTTAPATVLVGTPAPGPNGSNSDGDSERASQDVRDTAARHGRAALTDVHGTWLVAIVSGQLSPTEKFLKDLLAAFADAPVVIGPTAPMLTAAHRSASEAISGMNAVAGWRGAPRPVLARELLPERALMGDASAIVALHTDVMRPLADAGPTLIETLDAYLDCGGAIEACARKLFVHPNTVRYRLKRITDFTGRDPTQPRDAYVLRVAATVGQLNYPTPH	not soluble
MGSDKIHHHHHHMSDLPERLHDIIRRRNMVLGPGYQFSETIPVEFVSSFGAHLIDSDGNDYLDAFNNVQGVGHAHRHVADAVARQIAAINTDTRYPQEALVAYAERLLATFPAELSKLSLPCTGSEANDLAVRVARYHTGGEGIIVTRWAFHGRTREVASFSPMLGAGSPLGPNVRLIAAPDPRFCGPQQSLENYMRDQVRSAIVDLERHGYRLAALVADSAFTSDGIFTHPVGFLQAMVDEVHAAGGLHIADEVQSGFAQLGDSMWGFSRHGVVPDIVTMGKAIGNGFPISGVVFRPEVSDEFGQKVSYFNTLGGRSLSIAAASAVLDVFEQENVRERVAVNGAALQSGLETLARESPYVAEIRGSGLYLGVEIVKDRETLEPDPIRCESIIKDLRDRRVLISRTGSSGNVLKVRPPVAFTAADVSRFLETFAIVAKQRL	not soluble
MRDIVFIERDPYAPIRHCYTVSKILYQGKSPYQEIQVIESPEFGRMLILDGVVQLDEKYEFLYHEYLAHVPLHAHPNPRNVLIIGGGDGGTLREVLKHDIVERAVLVDIDKEVIEVSKKYLPTLSVGFQDPRAIVVNEDGYKYVQDYENEFDVIIVDSTDPVGFAHVLTTEDFFRHVYKALKEDGIFVAQTESIHYHLEMVSNIQQRLKKVFPIVDLYTSVIPIYAGYWWTFSIASKKYPVRTPAREVKVQTKIYDADMHEYAFLPESFYNKIVNGEYKYLEHHHHHH	not soluble
MGHHHHHHSHMSDAGMPSLSDPGMSLAAYALKHNIQYDVLPGANALTTAFCASGFLEGRFFYAGFLPHKSKERRLKIAKILNALAYLEEKTPVVFYESPHRLLETLKDLNDLAKGMHLFAAKELTKLHQQYYLGEVSQIIERLQQSTIQGEWVLVLLNEKKIEPCMGLSALLELDLPPKIKAKIEAVMTQKNAKELYFQRLLEEKNQ	not soluble
SSHGIGDALGSDWPGREPRATDNRGQYLKGESWVSGRPGHPKLREVGFLRGEPPSAGPKGLGTWSELSHRYFELGQLPYAYPYYKVLPEGELRCVSLDRFNPGLSEETVEDEKTLKFFRWSADSRGVTGSAIFQISKSLMP	soluble
